Measurements as given in publication PMC3477141, “Repositioning Antimicrobial Agent Pentamidine as a Disruptor of the Lateral Interactions of Transmembrane Domain 5 of EBV Latent Membrane Protein 1” (PLoS ONE, 2012).
Where no end group is shown, it is not given here.

B1: LMP-1 TMD-5 peptide KKKK-TMD-5-KKKK (peptide)
peptide: KKKKWQLLAFFLAFFLDLILLIIALYLKKKK
notes: lysine flank added to increase the solubility of the peptide; transmembrane domain 5 (TMD-5) of latent membrane protein 1 (LMP-1) of Epstein-Barr virus; source: synthetic peptide, purified by reverse phase HPLC
B2: coumarin labeled LMP-1 TMD-5 peptide (peptide)
peptide: {7‑hydroxycoumarin‑3‑carboxylic acid}-GGGPGWQLLAFFLAFFLDLILLIIALYLGPGG
notes: flank between the coumarin label and TMD-5; transmembrane domain 5 (TMD-5) of latent membrane protein 1 (LMP-1) of Epstein-Barr virus; C-terminal flank; also called coumarin labeled TMD-5; source: synthetic peptide, labeled with coumarin on the resin, purified by reverse phase HPLC

Columns and labels:
[1] = target: the molecule itself; assay: Bis-Tris SDS-PAGE; 12% NuPAGE Bis-Tris gel, MES SDS running buffer, room temperature; 200 uM TMD-5 peptide in Laemmli sample buffer overnight, heated at 90 C for 7 min; Coomassie stain; pentamidine to peptide ratios 0 to 20
[2] = target: the molecule itself; assay: coumarin fluorescence dequenching (self-quenching) assay; 100 nM coumarin labeled TMD-5 in 50 mM HEPES pH 7.4 with 150 uM C14 betaine micelles, room temperature overnight; excitation 360 nm, emission 430 nm; with or without 64 uM pentamidine

| Protein | stoichiometry N [1] | binding result [2] |
| --- | --- | --- |
| B1 | 3 |  |
| B2 |  | binds |
